The text below walks through data of patent publication US20160272693A1 (ZEALAND PHARMA A S, published 2016).

The target of the test is T1, human amylin receptor 3 (hAMYR3), hCTR2 co-expressed with human receptor activity modifying protein 3 (hRAMP3) (human, UniProt P30988 25-474; O60896 24-148).
T1 sequence (looked up) 1: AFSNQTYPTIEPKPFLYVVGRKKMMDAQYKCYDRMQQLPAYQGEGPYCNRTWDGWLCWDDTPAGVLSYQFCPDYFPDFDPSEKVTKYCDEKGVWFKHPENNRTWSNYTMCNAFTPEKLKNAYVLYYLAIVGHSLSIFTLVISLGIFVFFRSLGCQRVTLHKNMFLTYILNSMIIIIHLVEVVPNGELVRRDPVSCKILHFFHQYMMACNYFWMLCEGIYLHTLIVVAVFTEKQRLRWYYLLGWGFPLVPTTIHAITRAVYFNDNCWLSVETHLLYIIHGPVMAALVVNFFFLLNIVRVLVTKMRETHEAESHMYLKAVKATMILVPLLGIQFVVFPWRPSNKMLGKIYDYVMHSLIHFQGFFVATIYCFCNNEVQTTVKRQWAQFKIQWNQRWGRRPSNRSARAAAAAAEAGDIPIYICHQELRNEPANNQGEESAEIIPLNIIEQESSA
T1 sequence (looked up) 2: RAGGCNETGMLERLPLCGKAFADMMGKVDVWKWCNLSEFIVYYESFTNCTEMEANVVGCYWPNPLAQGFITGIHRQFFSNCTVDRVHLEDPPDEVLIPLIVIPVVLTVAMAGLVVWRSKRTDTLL
Kind of test: cell-based or functional assay.

*1 amine or outer side, *2 acyl side, *3 side chain or, on linkers, in order; H or OH if unused. Bridges are numbered along the chain shown (N, C = ends). [ ]: non-standard residue; d: D form. The star is where a group is joined. C20 diacid = O=C(O)CCCCCCCCCCCCCCCCCCC(=O)*; γGlu = O=C(O)[C@H](CCC(=O)[*:2])N[*:1]; Hyp = O=C(O)[C@@H]1C[C@@H](O)CN1; NMeI = CC[C@H](C)[C@H](NC)C(=O)O; Sar = CNCC(=O)O

B1: [19CD]-isoGlu-R-C( )-GTAT-C( )-ATERLAHFLHRSSF-Gly(Me)-A-Ile(Me)-LSSTEVGSETP-NH2 (Compd. 26) (peptide)
peptide: {C20 diacid}-[γGlu]RCGTATCATERLAHFLHRSSF[Sar]A[NMeI]LSSTEVGSETP-NH2
modifications: disulfide 3-8
SMILES: CC[C@H](C)[C@@H](C(=O)N[C@@H](CC(C)C)C(=O)N[C@@H](CO)C(=O)N[C@@H](CO)C(=O)N[C@H](C(=O)N[C@@H](CCC(=O)O)C(=O)N[C@H](C(=O)NCC(=O)N[C@@H](CO)C(=O)N[C@@H](CCC(=O)O)C(=O)N[C@H](C(=O)N1CCC[C@H]1C(N)=O)[C@@H](C)O)C(C)C)[C@@H](C)O)N(C)C(=O)[C@H](C)NC(=O)CN(C)C(=O)[C@H](Cc1ccccc1)NC(=O)[C@H](CO)NC(=O)[C@H](CO)NC(=O)[C@H](CCCNC(=N)N)NC(=O)[C@H](Cc1c[nH]cn1)NC(=O)[C@H](CC(C)C)NC(=O)[C@H](Cc1ccccc1)NC(=O)[C@H](Cc1c[nH]cn1)NC(=O)[C@H](C)NC(=O)[C@H](CC(C)C)NC(=O)[C@H](CCCNC(=N)N)NC(=O)[C@H](CCC(=O)O)NC(=O)[C@@H](NC(=O)[C@H](C)NC(=O)[C@@H]1CSSC[C@H](NC(=O)[C@H](CCCNC(=N)N)NC(=O)CC[C@H](NC(=O)CCCCCCCCCCCCCCCCCCC(=O)O)C(=O)O)C(=O)NCC(=O)N[C@@H]([C@@H](C)O)C(=O)N[C@@H](C)C(=O)N[C@@H]([C@@H](C)O)C(=O)N1)[C@@H](C)O
On to B1, for which the “hAMYR3 EC50 (nM); cAMP induction” value was found to be 0.12 nM.

B2: [19CD]-isoGlu-R-C( )-GTAT-C( )-ATERLAHFLQRSSF-Gly(Me)-A-Ile(Me)-LSSTEVGSST-Hyp-NH2 (Compd. 28) (peptide)
peptide: {C20 diacid}-[γGlu]RCGTATCATERLAHFLQRSSF[Sar]A[NMeI]LSSTEVGSST[Hyp]-NH2
modifications: disulfide 3-8
SMILES: CC[C@H](C)[C@@H](C(=O)N[C@@H](CC(C)C)C(=O)N[C@@H](CO)C(=O)N[C@@H](CO)C(=O)N[C@H](C(=O)N[C@@H](CCC(=O)O)C(=O)N[C@H](C(=O)NCC(=O)N[C@@H](CO)C(=O)N[C@@H](CO)C(=O)N[C@H](C(=O)N1C[C@H](O)C[C@H]1C(N)=O)[C@@H](C)O)C(C)C)[C@@H](C)O)N(C)C(=O)[C@H](C)NC(=O)CN(C)C(=O)[C@H](Cc1ccccc1)NC(=O)[C@H](CO)NC(=O)[C@H](CO)NC(=O)[C@H](CCCNC(=N)N)NC(=O)[C@H](CCC(N)=O)NC(=O)[C@H](CC(C)C)NC(=O)[C@H](Cc1ccccc1)NC(=O)[C@H](Cc1c[nH]cn1)NC(=O)[C@H](C)NC(=O)[C@H](CC(C)C)NC(=O)[C@H](CCCNC(=N)N)NC(=O)[C@H](CCC(=O)O)NC(=O)[C@@H](NC(=O)[C@H](C)NC(=O)[C@@H]1CSSC[C@H](NC(=O)[C@H](CCCNC(=N)N)NC(=O)CC[C@H](NC(=O)CCCCCCCCCCCCCCCCCCC(=O)O)C(=O)O)C(=O)NCC(=O)N[C@@H]([C@@H](C)O)C(=O)N[C@@H](C)C(=O)N[C@@H]([C@@H](C)O)C(=O)N1)[C@@H](C)O
In the case of B2, the “hAMYR3 EC50 (nM); cAMP induction” value is 0.13 nM.

B3: [19CD]-isoGlu-R-C( )-PTAT-C( )-ATDRLAHFLHRSSF-Gly(Me)-A-Ile(Me)-LSSTDVGSDTP-NH2 (Compd. 27) (peptide)
peptide: {C20 diacid}-[γGlu]RCPTATCATDRLAHFLHRSSF[Sar]A[NMeI]LSSTDVGSDTP-NH2
modifications: disulfide 3-8
SMILES: CC[C@H](C)[C@@H](C(=O)N[C@@H](CC(C)C)C(=O)N[C@@H](CO)C(=O)N[C@@H](CO)C(=O)N[C@H](C(=O)N[C@@H](CC(=O)O)C(=O)N[C@H](C(=O)NCC(=O)N[C@@H](CO)C(=O)N[C@@H](CC(=O)O)C(=O)N[C@H](C(=O)N1CCC[C@H]1C(N)=O)[C@@H](C)O)C(C)C)[C@@H](C)O)N(C)C(=O)[C@H](C)NC(=O)CN(C)C(=O)[C@H](Cc1ccccc1)NC(=O)[C@H](CO)NC(=O)[C@H](CO)NC(=O)[C@H](CCCNC(=N)N)NC(=O)[C@H](Cc1c[nH]cn1)NC(=O)[C@H](CC(C)C)NC(=O)[C@H](Cc1ccccc1)NC(=O)[C@H](Cc1c[nH]cn1)NC(=O)[C@H](C)NC(=O)[C@H](CC(C)C)NC(=O)[C@H](CCCNC(=N)N)NC(=O)[C@H](CC(=O)O)NC(=O)[C@@H](NC(=O)[C@H](C)NC(=O)[C@@H]1CSSC[C@H](NC(=O)[C@H](CCCNC(=N)N)NC(=O)CC[C@H](NC(=O)CCCCCCCCCCCCCCCCCCC(=O)O)C(=O)O)C(=O)N2CCC[C@H]2C(=O)N[C@@H]([C@@H](C)O)C(=O)N[C@@H](C)C(=O)N[C@@H]([C@@H](C)O)C(=O)N1)[C@@H](C)O
For B3, the “hAMYR3 EC50 (nM); cAMP induction” value amounted to 0.16 nM.
